Reference: paper PMC6988089 (Journal of the American Chemical Society, 2019)
Where two headings read alike, the source gives them in different places.

Legend:
[1] = molecular target: T1, wild-type CBX1 chromodomain (human, UniProt P83916 20-73)
[2] = molecular target: CBX1 chromodomain F50A (human, UniProt P83916 20-73, F50A); experiment: fluorescence polarisation
[3] = molecular target: T1, wild-type CBX1 chromodomain; experiment: fluorescence polarisation

CBX1 chromodomain F50A, sequence (P83916 20-73 F45A): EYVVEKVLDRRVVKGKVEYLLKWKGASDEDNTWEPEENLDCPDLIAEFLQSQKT
T1 sequence (P83916 20-73): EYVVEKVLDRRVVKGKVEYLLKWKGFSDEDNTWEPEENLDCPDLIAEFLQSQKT

Row | Kd [2] [µM] | Binder | also measured
1 | – | ARTKQTARKSTGGKA (dimethyl-lysine at 9) [H3K9me2 peptide] | Kd [1]: 18.3 µM
2 | 14.1 ± 2.8 | ARTKQTARKSTGGKA (pentenyl-lysine at 9; tetramethylrhodamine (TAMRA) label, position not stated) [TAMRA-labeled pentenyl-modified H3K9 peptide] | –
3 | – | ARTKQTARKSTGGKA (allyl-lysine at 9; tetramethylrhodamine (TAMRA) label, position not stated) [TAMRA-labeled allyl-modified H3K9 peptide] | Kd [3]: 106 ± 20 µM
4 | 63.5 ± 6.2 | ARTKQTARKSTGGKA (trimethyl-lysine at 9; tetramethylrhodamine (TAMRA) label, position not stated) [TAMRA-labeled H3K9me3 peptide] | –
